Test: yeast display, Sf9 membrane polyspecificity reagent, FACS + sequencing; frameworks hold sequencing errors
Method in brief: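 In a synthetic yeast display library (Saccharomyces cerevisiae BJ5465), nanobody expression was induced with galactose for 36–48 hours. FACS gates were set low and high (top ~1%) using anti-HA fluorescence for expression and streptavidin fluorescence for binding of the Sf9 membrane reagent. Each polyreactivity label is drawn from the gate of origin.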

Sequence | polyreactivity (PSR sort gate)
QVQLVESGGGLVQAGGSLRLSCAASGSIFYLNAMGWYRQAPGKERELDAAIRWSGGSTRYADSVKGRFTISRDNAKNTVYLQMNSLKPEDTAVYYCAKYNPVLVYHWWYYYWGQGTQVTVSS | high polyreactivity
QVQLVESGGGLVQAGGSLRLSSAASGSTFVTYAMGWYRQAPGKERELVAAISRRGGSTYYADSVKGRFTISRDNAKNTVYLQMNCLKPEDTAVYYCAPVQGSYSRDGADDYWGQGTQVTVSS | high polyreactivity
QVQLVESGGGLVQEGGSLRLSCAASGRTFKKYAMGWYRQAPGKERELVAAITGSGGSTYYADSVKGRFTISRDNAKNTVYLQMNSLKPEDSAVYYCAAYAYGVWHSQDGGNYWGQGTQVTVSS | low polyreactivity
QVQLVESGGGLVQAGGSLRLSCAASGIIFWFYAMGWYRQAPGKERELVAVISWNGDSTYYADSVKGRFTISRDNAKNTVYLQMNSLKPEDTEVYYCSAETYLGVYGSEYDYWGQGTQVTVSS | low polyreactivity
QVQLVESGGGLVQAGGSLRLSCASSVIILVQYVMGWYIQAPGKERELVASISRTGGSTNYADSVKGRFTISRDNAKNTVYLQMNSLKPEDTAVYYCSAKKRKIAGVGGDYWGQGTQVTVSS | high polyreactivity
QVQLVESGGGLVHAGGSLRLSCAASGLTFGAYAMGWYRQAPGEERELVATITNSGRTYYADSVKGRFTISRDNAKNTVYLQMNSLKPEDTAVYYCAAQPDGQAMDHWGQGTQVTVSS | low polyreactivity
QVQLVDSGGGLVQAGGSLSLSCAASGSTFVVNAMGWYRQAPGKERELVAAITQSGGSTFYADSVKGRFTISRDNAKNTVYLQMNSLKPEDTAVYYWGQGTQVTVSS | low polyreactivity
QVQLVESGGGLVQAGGSLRLSCAASGSTFLYYAMGWYRQAPGKERQLVAAISGSGGSTYYADSVKGRFTISRDNAKNNVYLQMYSLKPEDTAVYYCNAVARRHGLGPYDYWGQGTQVTVSS | high polyreactivity
QLQLVESGGGLVQAGGRLRLTCAASGSIFFGNVMGLYIQAPGKERELVAVISWSGGTTYYADSVKGRFTISRDNAKNTVYLQMNSLKTEDTAVYYCNARYLRRGDYWGQGTQVTVSS | low polyreactivity
QVQLVESGGGLVQAGGSLRLSCAASGRIFSYYAMGWYRQAPGKERELVATIDRSGDPTSYADSVKGRFTISRDNAMNTVYLKMNSLKPEDTAVYYCAATSKRARYDSWGQGTQVTVSS | high polyreactivity
QVQLVESGGGLVQAGGSLRLSCAASGFTFVRYAIGWYRQAPGKERELVSVISRSGGSTNYADSVKGRFTISRDNAKNTVYLQMNSLKPEDTAVYYCAASLQYRRVVKGGDYWGQGTQVTVSS | high polyreactivity
QVQLVESGGGLVQAGGSLRLSCAASGYIFYWYDMGWYRQAPGKEREMVAVIPTSGGSTYYADSVKGRFTISRDNAKNTVYLQMNSLKPEDTAVEYCNADSLFEYWDYDYWGQGTQVTVSS | low polyreactivity
QVQLVESGGGLVQAGGSLRLCCAACGRIFYAYAMGWYRQAPGKERELVAAISSSGGRTYYADSVKGRFTISRDNAKNTVYLQMNSLKPEDTAVYYSAAVHYYKFEWGQRTQVTVSS | high polyreactivity
QVQLVESGRGLVQAGGSLRLSCAASGLTFSKYAMGWYRQAPGKERELVATISRSGGSTYYADSVKGRFTISRDNAKNTVYVQMNSLKPEDTAVYYCAAGSILYGATGEYIYWGQGTQVTVSS | high polyreactivity
QVQLVESGVGLVQAGGSLRISCAASGRILGYYAMGWYRQAPGKEREMVAGISYSAGRTYYADSVKGRFTISRDNAKNTVYLQMNSLKPEDTAVYYCAKALVRSGSTRGTTGYYYWGQGTQVTVSS | high polyreactivity
QVQLVESGGGLVQAGCNLRISCAASGSTFTLYAMGWYRQAPGKERELVAGITYSGGSTFYADSVKGRFTISRDNAKNTVYLQMKSVKPEDTAVYFCGDVYVPYYWLGRSRGLYYWGQGTQVTVSS | high polyreactivity
QVQHVESGGGLVQAGGSLRLSCAASGRIFYSNTMGWYRQAPGKERELVAAITWRGGRTHYADSVKGRFTISRDNAKNTVYLQMNSLKPEDTAVYYCAARYIPIQYPSYRTWGGYSWGQGTQVTVSS | high polyreactivity
QVQLVESGGGLVQAGGSLRLSCAASGRIFSNNAMGWYRQAPGKERELVASIDSGDSTTYADSVKGRFTISRDNAKNTVYLQMNSLKPEDTAVYYCNAGPAEADYDYWGQGTQVTVSS | high polyreactivity
QVQLVESGGGLVQAGGSLRLSCAASGIFYYNAMGWNIQAPGKERELVAAISYSGGRTYYADSVKGRFTISRDNAKNTVYLQMNSLKPEDTAVYYCNAAARYGRLGGDYWGQGTQVTVSS | high polyreactivity
QDQLVESGGGFVQARGSLRLSCAACGFIFYANAMGWYRQAPGKERELVAGISWSGTSTYYADSVKGRFTISRDNAKNTVYLQMNSLKPEDTAVYYCNRVFYHFDVDRYDYWGQGTQVTVSS | low polyreactivity
QVQLVESGGGLVQAGGSLRLSCAASGSIFKIYAMGWYRQAPGKERELVARITRRGGRTNYADSVKGRFTISRDNAKNTVYLQMNSLKPEDTAVYYCASLGRRGGDYWGQGTQVTVAS | high polyreactivity
QVQLVESGGGLVQAGGRLRLSCAASGFTFLGSAMGWYRQAPGKERELVAAISSSGGSTYYADSVKGRFTISRDNAKNTVYLQMNSLKPEDTAVYYCAAYVAVPPSDYDYWGQGTQVTVSS | high polyreactivity

Sequence | polyreactivity (PSR sort gate)
QVQLVESGGGLVQAGGSLRLSCAASGSTFTVYAMGWYRQAPGKEREFVAAITRRGGNTYYADSVKGRFTISRDNAKNTVYLQMNSLKPEDTAVYYCNADSPLNAYYGGRELDYWGQGTQVTVSS | high polyreactivity
QVHLVESGGGLVQAGGSLRLSCAASGSTFVGYAMGWYRQAPGKERELVAAISGGDSTYYADSVKGRFTISRDNAKNTVYLQMNSLKPEDTAVYYCNADYGDTFEYDYWGQGTQVTVSS | low polyreactivity
QVQLVESGGGLVHAGGSLRLSCAASGITFVYYAMGWYRQAPGKERELVAAIDDTGTTYYADSVKGRFTISRDNAKNTVYLQMNSLKPEDTAVYYCAADDWGWFFGGGDYWGQGTQVTVSS | high polyreactivity
QVQLVESGGGLVQAGGSLRLSCAASGRIFNSNTMGWYRQAPGKERELVAAITYSGGSTYYADSVKGRFTISRDNAKNTVYLQMNSLKPEDTAVYYCAADFWEYDGPWYANDYDSWGQGTQVTVSS | low polyreactivity
QVQLVESGGGLVQAGGSLRLSCAACGFIFYYNAMGWYRQAHGKVRELVAAISSSAGSTYYADSVKGRFTISRDNAKNTVYLQMNSLKPEDTAVYDCAASRPPNTSNTGYGSWGQGTQVTVSS | low polyreactivity
QVQLVESGGGLVQAGGSLRLSCAASGIYAMGWYRQAPGKERELVAAIRWSGGSTYYADSVKGRFTISRDNAKNTVYLQMNSLKPEDTAVYYCAKRLRPGGYWYDYWGQGTQVTVSS | high polyreactivity
QVQLVESGGGLVHAGGSLRLSCAASGKIFGLYAMGWYRKAPGKERELVAAISYRTDSTYADSVKGRFTISRDNAKNTVYLQMNSLKPEDTAVYYCAADLRVSVRYYYWGQGTQVTVSS | low polyreactivity
QVQLVESGGGLVQAGGSLRLSCAASGRILGSYAMGWYRQAPGKERELVAGISWRGGRTYYADSVKGRFTISRDNAKNTVYLQLNSLKPEDTAVYYCATRSSSRKYGYWGQGTQVTVSS | high polyreactivity
QVQLLESGGGLVQAGGSLRLTCAASGSIFVIYAMGWYRQAPGKVRELVAAIDSSDGSTYYADSVKGRFTISRDNAKNTVYLQMNSLKPEDTAVYYCAARRLYWGQGTQVTVSS | high polyreactivity
QVQLVESGGGLVQAGGSLRLSCAASGLTFVYNTMGWYSQAPGKERELVAAISSSGGTTYYADSVKGRFTISRDTAKNTVYLQMNSLKPEDTAVYYCAARPSGGYESTRTRDYWGQGTHVTVSS | low polyreactivity
QVQLVESGGGLVQAGGSLRLSTAASGIIFWYNAMGWYRQAPGKERELVAAISTGGSTNYADSVKGRFTISRDNAKNTVYLQMNSLKPEDTAVYYCAADWHRSYGAYDYWGQGTQVNVSS | low polyreactivity
QVQLVESGGGLVQAGGSLRLSCAASGSIFGGYGMGWYRQAPGKERQLVAAITSGSSTYYADSVKGRFTISRDNAKNTVYLQMNSLKPEDTAVYYCAARPYPHSAYQGDYWGRGTQVTVSS | low polyreactivity
QVQLVESGGGLVQAGGSLRLSCAASGSIFDYYAMGWYRQAPGKETEFVADICSSGTSTYYADSVKGRFTISRDNAKNTVYLQMNSLKPEDTAVYYCNSELDSWLSYVVAYFARFDYWGQGTQVTVSS | high polyreactivity
QVQLVESGGGLVQAGGSLRLSCAASGIIFKRYAMGWYRQAPGKDRELVAAISSRAGRTYYADSVKGRFTISRDNAKNNVYLQLNSLKPEDTAVYYCNTGLVYGYDYWGQGTQVTVSS | high polyreactivity
QVQLVESGGGLVQAGGSLRLSCAASGITYVSNAMGWYRQAPGKERELFAANTRRGTSTYYADSVKGRFTLSRDNAKNTVYLQMNSLKPVDTAVYYCNKVWKYSSSGFGKEVYGYDYWGQGTQVTVSS | high polyreactivity
QVKLVESGGGLVQAGGSLRLSCAASGFTFISNAMGWYRQAPGKERELVAAISSSGGRTYYADSVKGRFTISRDNAKNTVYLQMNSLKPEDTAVYYCNADRSLLYSRKIEYDYWGQGTQVTVSS | low polyreactivity
QVQLVESGGGLVQAGGSLRLSCAASGFTFGIYAMGWYRQAPGKERELVAAITKGGGSTYYADSVKGRFTISRDNAKNTVYLQMNSLKPEDTAVYYCAARRVSERRVGYWGQGTQVTVSS | high polyreactivity
QVQLVESGGGLVKAGGSLRLSCAASGFTFAYYAMGWYRQAPGKERELVAAISGSGGSTYYADSVKGRFTISRDNAKNTVYLQMNSLKPEDTAVYYCAAARRSTWSYSYYWGQGTQVTVSS | high polyreactivity
QVQLVESGGGLVQAGGSLRLSCAASGITFGWYAMGWYRQAPGKERELVAAISGRGGRTYYADSVKGRFKISRDNAKNTVYLQMNSLKPEDTAVYYCAARARRWSYITGSYVLIEYEYWGQGTQVTVSS | high polyreactivity
QVQLVESGGGLVQAGGSLRLSCAASGITFATNTMGWYRQAPGKERELVASINYRGGSTYYADSVKGRFTISRDNAKNTVYLQMNSLKPEDTAVYYCNADIYLEYDYWGQGTQVTVSS | low polyreactivity
QVQLVESGGGLVQAGGSLRLSCAASGRIFPYYAIGWYRQAPGKERELVASTNYADSVKGRFTISRDNAKNTVYLQMNSLKPEDTAVYYCNADSVYPPGSDYVVRDGNFDYWGQGTQVTVSS | low polyreactivity

Reference: the nanobody polyreactivity screen of Harvey et al. (2022)
